molecular target: HLA-A*02:01 (Homo sapiens, UniProt P04439, D140Y/D185E/D98H/E176V/E277Q/G131W/G231S/I119V/I121R/I166T/I218V/L300P/L318F/N151K/N90K/P208A/P217A/Q86G/Q94H/R138H/R169H/T345S); test: MHC binding assay: UV-ligand exchange with β2m ELISA (peptide exchange yield); settings: binding to HLA-A*02:01 evaluated by peptide exchange yield (UV-ligand exchange, β2m ELISA)
Source text: Candidate peptides for T cell based therapies according to the present invention were further tested for their MHC binding capacity (affinity). The individual peptide-MHC complexes were produced by UV-ligand exchange, where a UV-sensitive peptide is cleaved upon UV-irradiation, and exchanged with the peptide of interest as analyzed. Only peptide candidates that can effectively bind and stabilize the peptide-receptive MHC molecules prevent dissociation of the MHC complexes. To determine the yield of the exchange reaction, an ELISA was performed based on the detection of the light chain (β2m) of stabilized MHC complexes. The assay was performed as generally described in Rodenko et al. (Rodenko et al., 2006).
96 well MAXISorp plates (NUNC) were coated over night with 2 ug/ml streptavidin in PBS at room temperature, washed 4× and blocked for 1 h at 37° C. in 2% BSA containing blocking buffer. Refolded HLA-A*02:01/MLA-001 monomers served as standards, covering the range of 15-500 ng/ml. Peptide-MHC monomers of the UV-exchange reaction were diluted 100 fold in blocking buffer. Samples were incubated for 1 h at 37° C., washed four times, incubated with 2 ug/ml HRP conjugated anti-β2m for 1 h at 37° C., washed again and detected with TMB solution that is stopped with […]. Absorption was measured at 450 nm. Candidate peptides that show a high exchange yield (preferably higher than 50%, most preferred higher than 75%) are generally preferred for a generation and production of antibodies or fragments thereof, and/or T cell receptors or fragments thereof, as they show sufficient avidity to the MHC molecules and prevent dissociation of the MHC complexes.

Row | Peptide exchange | Substance
1 | ++ (≥20% = ++) | 149 (NMADGQLHQV; listed as Homo sapiens) [compound 149]
2 | +++ (≥50 = +++) | 150 (VLLDMVHSL; listed as Homo sapiens) [compound 150]
3 | ++ (≥20% = ++) | 151 (DISKRIQSL; listed as Homo sapiens) [compound 151]
4 | +++ (≥50 = +++) | 153 (KLVELEHTL; listed as Homo sapiens) [compound 153]
5 | ++ (≥20% = ++) | 154 (AIIKEIQTV; listed as Homo sapiens) [compound 154]
6 | ++ (≥20% = ++) | 155 (TLDSYLKAV; listed as Homo sapiens) [compound 155]
7 | ++ (≥20% = ++) | 157 (ILQDGQFLV; listed as Homo sapiens) [compound 157]
8 | +++ (≥50 = +++) | 158 (YLDPLWHQL; listed as Homo sapiens) [compound 158]
9 | +++ (≥50 = +++) | 159 (QLGPVPVTI; listed as Homo sapiens) [compound 159]
10 | +++ (≥50 = +++) | 160 (TLQEWLTEV; listed as Homo sapiens) [compound 160]
11 | ++++ (≥75% = ++++) | 161 (NLLDENVCL; listed as Homo sapiens) [compound 161]
12 | +++ (≥50 = +++) | 162 (GLLGNLLTSL; listed as Homo sapiens) [compound 162]
13 | ++ (≥20% = ++) | 163 (GLEERLYTA; listed as Homo sapiens) [compound 163]
14 | +++ (≥50 = +++) | 164 (MLIIRVPSV; listed as Homo sapiens) [compound 164]
15 | +++ (≥50 = +++) | 165 (SLLDYEVSI; listed as Homo sapiens) [compound 165]
16 | +++ (≥50 = +++) | 166 (LLGDSSFFL; listed as Homo sapiens) [compound 166]
17 | +++ (≥50 = +++) | 167 (LVVDEGSLVSV; listed as Homo sapiens) [compound 167]
18 | +++ (≥50 = +++) | 168 (VIFEGEPMYL; listed as Homo sapiens) [compound 168]
19 | +++ (≥50 = +++) | 169 (ALADLSVAV; listed as Homo sapiens) [compound 169]
20 | ++ (≥20% = ++) | 170 (FIAAVVEKV; listed as Homo sapiens) [compound 170]
21 | ++ (≥20% = ++) | 171 (LLLLDVPTA; listed as Homo sapiens) [compound 171]
22 | +++ (≥50 = +++) | 173 (RLIDIYKNV; listed as Homo sapiens) [compound 173]
23 | ++ (≥20% = ++) | 174 (ALYSGDLHAA; listed as Homo sapiens) [compound 174]
24 | +++ (≥50 = +++) | 175 (SLLDLVQSL; listed as Homo sapiens) [compound 175]

Row | Peptide exchange | Substance
25 | ++ (≥20% = ++) | 176 (VQSGLRILL; listed as Homo sapiens) [compound 176]
26 | +++ (≥50 = +++) | 177 (ALINVLNAL; listed as Homo sapiens) [compound 177]
27 | ++++ (≥75% = ++++) | 178 (SLVSWQLLL; listed as Homo sapiens) [compound 178]
28 | +++ (≥50 = +++) | 179 (TLGEIIKGV; listed as Homo sapiens) [compound 179]
29 | +++ (≥50 = +++) | 180 (RLYEEEIRI; listed as Homo sapiens) [compound 180]
30 | +++ (≥50 = +++) | 181 (LLWAPTAQA; listed as Homo sapiens) [compound 181]
31 | +++ (≥50 = +++) | 182 (GLQDGFQITV; listed as Homo sapiens) [compound 182]
32 | +++ (≥50 = +++) | 183 (ALSYILPYL; listed as Homo sapiens) [compound 183]
33 | ++ (≥20% = ++) | 184 (ALDSTIAHL; listed as Homo sapiens) [compound 184]
34 | ++ (≥20% = ++) | 185 (TLYQGLPAEV; listed as Homo sapiens) [compound 185]
35 | ++ (≥20% = ++) | 187 (SILKEDPFL; listed as Homo sapiens) [compound 187]
36 | ++ (≥20% = ++) | 188 (VLGEEQEGV; listed as Homo sapiens) [compound 188]
37 | +++ (≥50 = +++) | 190 (SLSTELFKV; listed as Homo sapiens) [compound 190]
38 | +++ (≥50 = +++) | 191 (AAIEIFEKV; listed as Homo sapiens) [compound 191]
39 | ++ (≥20% = ++) | 192 (TLLPSSGLVTL; listed as Homo sapiens) [compound 192]
40 | +++ (≥50 = +++) | 193 (ALFHMNILL; listed as Homo sapiens) [compound 193]
41 | ++ (≥20% = ++) | 194 (KLLEEVQLL; listed as Homo sapiens) [compound 194]
42 | +++ (≥50 = +++) | 195 (VIIQNLPAL; listed as Homo sapiens) [compound 195]
43 | ++ (≥20% = ++) | 198 (ILTNKVVSV; listed as Homo sapiens) [compound 198]
44 | ++ (≥20% = ++) | 199 (SVADLAHVL; listed as Homo sapiens) [compound 199]
45 | +++ (≥50 = +++) | 200 (IMPTFDLTKV; listed as Homo sapiens) [compound 200]
46 | ++ (≥20% = ++) | 203 (FLFVDPELV; listed as Homo sapiens) [compound 203]
47 | +++ (≥50 = +++) | 204 (SEWGSPHAAVP; listed as Homo sapiens) [compound 204]
48 | ++++ (≥75% = ++++) | 206 (GLDAFRIFL; listed as Homo sapiens) [compound 206]

Row | Peptide exchange | Substance
49 | +++ (≥50 = +++) | 207 (KLFETVEEL; listed as Homo sapiens) [compound 207]
50 | ++ (≥20% = ++) | 208 (HLNNDRNPL; listed as Homo sapiens) [compound 208]
51 | +++ (≥50 = +++) | 210 (GLAGDNIYL; listed as Homo sapiens) [compound 210]
52 | +++ (≥50 = +++) | 211 (LLTTVLINA; listed as Homo sapiens) [compound 211]
53 | ++ (≥20% = ++) | 212 (MTLSEIHAV; listed as Homo sapiens) [compound 212]
54 | +++ (≥50 = +++) | 213 (ILAVDGVLSV; listed as Homo sapiens) [compound 213]
55 | +++ (≥50 = +++) | 214 (ALFETLIQL; listed as Homo sapiens) [compound 214]
56 | ++ (≥20% = ++) | 215 (QIADIVTSV; listed as Homo sapiens) [compound 215]
57 | ++ (≥20% = ++) | 216 (ALSTVTPRI; listed as Homo sapiens) [compound 216]
58 | +++ (≥50 = +++) | 217 (LLWPSSVPA; listed as Homo sapiens) [compound 217]
59 | +++ (≥50 = +++) | 218 (SLTGANITV; listed as Homo sapiens) [compound 218]
60 | ++ (≥20% = ++) | 219 (GVVPTIQKV; listed as Homo sapiens) [compound 219]
61 | +++ (≥50 = +++) | 220 (ALSELERVL; listed as Homo sapiens) [compound 220]
62 | ++ (≥20% = ++) | 221 (IMLNSVEEI; listed as Homo sapiens) [compound 221]
63 | ++ (≥20% = ++) | 222 (LLTGVFAQL; listed as Homo sapiens) [compound 222]
64 | +++ (≥50 = +++) | 223 (ALHPVQFYL; listed as Homo sapiens) [compound 223]
65 | +++ (≥50 = +++) | 224 (LLFDWSGTGRADA; listed as Homo sapiens) [compound 224]
66 | +++ (≥50 = +++) | 225 (FLPQPVPLSV; listed as Homo sapiens) [compound 225]
67 | +++ (≥50 = +++) | 226 (SLAGNLQEL; listed as Homo sapiens) [compound 226]
68 | + (≥10% = +) | 227 (SEMEELPSV; listed as Homo sapiens) [compound 227]
69 | +++ (≥50 = +++) | 228 (SLLELDGINLRL; listed as Homo sapiens) [compound 228]
70 | ++ (≥20% = ++) | 229 (YLYELEHAL; listed as Homo sapiens) [compound 229]
71 | +++ (≥50 = +++) | 230 (KLLNMIFSI; listed as Homo sapiens) [compound 230]
72 | +++ (≥50 = +++) | 231 (LLDDIFIRL; listed as Homo sapiens) [compound 231]
